In US7381803 (PROTEIN DESIGN LABS, dated 2008):

Columns and labels:
[1] = target: 28/32 kDa heterodimeric protein on the surface of malignant B-cells; assay: whole cell indirect radioimmunoassay on HO-85 and Raji cells
[2] = target: T1, human CD3 antigen on the surface of T cells (human, UniProt P07766 23-207); assay: Scatchard analysis, 125I-labelled antibody on activated human T cells
T1 construct: whole, on cells; also called human CD3 complex
Description: Figure 11A: FIG. 11. (A). Displacement assay to compare the relative affinity of HuM291-Fos and M291 for their antigen. Sub-saturation amounts of murine M291-FITC on human T cells were displaced by increasing amounts of murine M291 or HuM291-Fos. T cells were resuspended in complete media at 2.5 ×10^6/ml. Dilutions of the test (HuM291-Fos) or control (murine M291) antibody were added and incubated at 4° C. for 1 hour. A fixed, subsaturation amount of murine M291-FITC was added, and the cells were incubated at 4° C. for 1 hour, wash d, and resuspended in 1% paraformaldehyde. The cells were then analyzed using flow cytometry. Values expressed in % inhibition of fluorescence intensity compared to no competitive antibody control. (B). Scatchard plot analysis of the binding of ^125I-label d HuM291-Fos to activated human T cells. […] The cells were washed in binding buffer (2% horse serum in PBS containing 0.1% sodium azide) and counted. Nonspecific binding was determined by inhibiting the specific binding with an excess of nonlabeled HuM291-Fos. The apparent K_a and the number of binding sites were calculated from the slope and th X axis intercept, respectively, of the Scatchard plot. […]
The relative affinity of murine M291 and HuM291-Fos F(ab'-zipper)_2 for T cells was evaluated using the displacement assay described above. […]

[3] = target: 28/32 kDa heterodimeric protein on the surface of malignant B-cells; assay: Scatchard analysis, 125I-labelled antibody on Raji cells

T1 sequence (P07766 23-207): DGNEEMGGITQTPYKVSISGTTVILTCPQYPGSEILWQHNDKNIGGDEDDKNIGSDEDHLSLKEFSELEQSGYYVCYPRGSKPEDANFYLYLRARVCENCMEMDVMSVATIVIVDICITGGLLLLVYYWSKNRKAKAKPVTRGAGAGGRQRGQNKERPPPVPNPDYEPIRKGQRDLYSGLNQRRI

B1: mouse 1D10 antibody (parent, IgG1/kappa) (antibody, V domains shown)
VH: QVQLKQSGPGLVQPSQSLSITCTGSGFSLTNYGVHWVRQSPGKGLEWLGVKWSGGSTEYNAAFISRLSISKDNSKSQVFFKMNSLQADDTAMYYCARNDRYAMDYWGQGTSVTVSS
VL: DIQMTQSPASLSASVGETVTITCRASENIYSYLAWYQQKQGKSPQLLVSNAKTLAEGVTSRFSGSGSGKQFSLKINSLQPEDFGNYYCQHHYGNSYPFGGGTKLEIK
- binding activity relative to tissue culture medium alone [1]: 5 times

B2: HuM291-Fos F(ab'-zipper)2 (antibody, V domains shown)
VH: QVQLVQSGAEVKKPGASVKVSCKASGYTFISYTMHWVRQAPGQGLEWMGYINPRSGYTHYNQKLKDKATLTADKSASTAYMELSSLRSEDTAVYYCARSAYYDYDGFAYWGQGTLVTVSS
VL: DIQMTQSPSSLSASVGDRVTITCSASSSVSYMNWYQQKPGKAPKRLIYDTSKLASGVPSRFSGSGSGTDFTLTISSLQPEDFATYYCQQWSSNPPTFGGGTKVEIKR
notes: Bivalent F(ab'-zipper)2 fragment without Fc; The heavy chain is the Fd-Fos (VH 1-120, CH1 121-218, modified hinge 219-238, Fos leucine zipper 239-279); 125I-labelled in the Scatchard analysis; also called humanized F(ab'-zipper)2 of M291
- Ka [2]: ~1.1e+09 M⁻¹

B3: humanized 1D10-IgG1 (antibody, V domains shown)
VH: QVQLQESGPGLVKPSETLSLTCTVSGFSLTNYGVHWVRQSPGKGLEWIGVKWSGGSTEYNAAFISRLTISKDTSKNQVSLKLNSLTAADTAVYYCARNDRYAMDYWGQGTLVTVSS
VL: DIQMTQSPSSLSASVGDRVTITCRASENIYSYLAWYQQKPGKAPKLLVSNAKTLAEGVPSRFSGSGSGKQFTLTISSLQPEDFATYYCQHHYGNSYPFGQGTKLEIKR
- Ka [3]: 2.3e+08 M⁻¹
- sites per cell (sites per cell) [3]: 500000
